Reference: patent US20170312350A1 (IMMATICS BIOTECHNOLOGIES, published 2017)

Target: MHC/IGF2BP3-001 complex on IGF2BP3-001-loaded target cells (human)
Test: cell-based or functional assay

B1: TCR R10P1A7 (TCR, V domains shown)
V domain 1: GEDVEQSLFLSVREGDSSVINCTYTDSSSTYLYWYKQEPGAGLQLLTYIFSNMDMKQDQRLTVLLNKKDKHLSLRIADTQTGDSAIYFCAESKETRLMFGDGTQLVVKP
V domain 2: GAVVSQHPSWVICKSGTSVKIECRSLDFQATTMFWYRQFPKQSLMLMATSNEGSKATYEQGVEKDKFLINHASLTLSTLTVTSAHPEDSSFYICSARAGGHEQFFGPGTRLTVLE
EC50 (target peptide titration, IFNγ release): ~1 nM
